# Measurements published in the nanobody polyreactivity screen of Harvey et al. (2022).
# Assay: yeast display, Sf9 membrane polyspecificity reagent, FACS + sequencing; frameworks hold sequencing errors
# Outline: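 A nanobody's polyreactivity label depends on the gate it was sorted from. Yeast display cells were stained with 10% biotinylated, detergent-solubilized Sf9 membrane reagent for 1 hour at 4 °C, enriched on streptavidin microbeads and sorted by FACS. The low and high (top ~1%) gates were set on anti-HA fluorescence for expression and streptavidin fluorescence for reagent binding.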
row,Sequence,polyreactivity (PSR sort gate)
1,QVQLVESGGGLVQAGGSLRLSCAASGRIFRINGMGWYRQAPGKEREFVAAITSGGGTYYADSVKGRFTISRDNAKNTVYLQMNSLKPEDTAVYYCAVRRRYGDDYWGQGTQVTVSS,high polyreactivity
2,QVQLVESGGGLVQAGGSLRLSCAASGRIFRKNARGWYRQAPGKEREFVAAIRLSGGRTFYADSVKGRFTISRDNAKNTVYLQMNSLKPEDTAVYYCAAETVNGKHDYWGQGTQVTVSS,high polyreactivity
3,QVQLVESGGGLVQAGGSLRLSCAASGRIFRKNVMGWYRQAPGKERELVAAIRWSGGGTYYADSVKGRFTISRDNAKNTVYLQMNSLKPEDTAVYYCAAVPTSSAYDYWGQGTQVTVSS,high polyreactivity
4,QVQLVESGGGLVQAGGSLRLSCAASGRIFRLYAMGWYRQAPGKERELGAAISSRGGDTYADSVKGRFTISRDNAKNTVYLQMNSLKPEDTAVYYCNDVIYYPYKSGVWYYEYDYWGQGTKVTVSS,low polyreactivity
5,QVQLVESGGGLVQAGGSLRLSCAASGRIFRLYAMGWYRQSPGKERELVATITSGGTYYADSVKGRFTISRDNAKNTVYLQMNSLKPEDTAVYYCTARRRLRYDYWGQGTQVTVSS,low polyreactivity
6,QVQLVESGGGLVQAGGSLRLSCAASGRIFRPNAMGWNRQAPGKVRELVAAISSGGSTYYADSVKGRFTISRDNAKNTVYLQMNSLKPEDTAVYYCAARSRGYDIRYGYWGQGTQVTVSS,high polyreactivity
7,QVQLVESGGGLVQAGGSLRLSCAASGRIFRPYAMGWYRLAPGKERELVAAISWSGDDTYYADSVKGRFTISRDNAKNTVYLQMNSLKPEDTAVYYCAAEVYAAAYDYWGQGTQVTVSS,low polyreactivity
8,QVQLVESGGGLVQAGGSLRLSCAASGRIFRPYAMGWYRQAPGKERELVAAITQSGGITSYADSVKGRFTISRDNAKNSVYLQMNSLKPEDTAVYYCATTSRYTRSHYDWYDYWGQGTQVTVSS,low polyreactivity
9,QVQLVESGGGLVQAGGSLRLSCAASGRIFRPYTMGWYRQAPGKERELVAAITSGSSTNYADSVKGRFTISRDNAKNTVYLHMNSLKPEDTAVYYCAVKVRIFASYYPFYYWGQGSQVTVSS,high polyreactivity
10,QVQLVESGGGLVQAGGSLRLSCAASGRIFRQNAMGWYRQAPGKERELVAAISRSGGSTYYADSVKGRFTISRDNAKNTVYLQMNSLNPEDTAVYYCNRDYQSQRTYPRRYDYWGQGTQVTVSS,low polyreactivity
11,QVQLVESGGGLVQAGGSLRLSCAASGRIFRQYAMGWYRQAPGKERELVAAITSGGSTNYADSVKGRFTISRDNAKNTVYLQMNSLKPEDTAVYYCNAAGGTRSGVQYDYWGQGTQVTVSS,low polyreactivity
12,QVQLVESGGGLVQAGGSLRLSCAASGRIFRQYAMGWYRQAPGKERELVAAITSGGSTNYADSVKGRFTISRDNAKNTVYLQMNSLKPEDTAVYYCNARWPYAYQDGYWGQGTQVTVSS,low polyreactivity
13,QVQLVESGGGLVQAGGSLRLSCAASGRIFRRNAMGWYRQAPGKERELVAAITSNGGRTYYADSVKGRFTISRDNAKNTVYLQMNSLKPEDTAVYYCAADTYDNDYYYWGQGTQVTVSS,high polyreactivity
14,QVQLVESGGGLVQAGGSLRLSCAASGRIFRRNTMGWYRQAPGKERELVAAITSSGGSTYADSVKGRFTISRDNAKNTVYLQMKSLKPEDTAVYYCATYVAYHRGYRTYDHWGQGTQVTVSS,low polyreactivity
15,QVQLVESGGGLVQAGGSLRLSCAASGRIFRRNTMGWYRQAPGKERELVAAITSSGGSTYADSVKGRFTISRDNAKNTVYLQMNSLTPEDTAVYYCATYVAYHRGYRTYDHWGQGTHVTVSS,low polyreactivity
16,QVQLVESGGGLVQAGGSLRLSCAASGRIFRRNTMGWYRQAPGKERELVATISKNGGSTYYADSVKGRFTISRDNAKNTVYLQMNSLKPADTAVYYCNAPDPSSTSYFPYELGYWGQGTQVTVSS,high polyreactivity
17,QVQLVESGGGLVQAGGSLRLSCAASGRIFRRYAMGWYRQAPAKERELVAAITTSGGSTYYADSVKGRFTISRDNAKNTVYLQMNSQNPADTAVYYCNTVSPYKYDWGLGTQVTVSS,high polyreactivity
18,QVQLVESGGGLVQAGGSLRLSCAASGRIFRRYAMGWYRQAPGKEREFVAAITKSGGSTYYADSVKGRFTISRDNAKNTVYLQMNSLKPEDTAVYYCATYPQYYFGYDYWGQGTQVTVSS,high polyreactivity
19,QVQLVESGGGLVQAGGSLRLSCAASGRIFRRYAMGWYRQAPGKERELVAAISWSGGATYYADSVKGRFTISRDNAKNTVYLQMNSLKPEDTAVYYCAALRYQQCRAYDYWGQGTLVTVSS,high polyreactivity
20,QVQLVESGGGLVQAGGSLRLSCAASGRIFRRYTMGWSRQAPGKERELVAAISSGGSTNYADSVKGRFTISRDNANNTVYLQMNSLKPEDTAVYYCAARFASRQHTIYYYWGQGTQVTVSS,high polyreactivity
21,QVQLVESGGGLVQAGGSLRLSCAASGRIFRRYTMGWYRQAPGKERELVAAITWNGGRTYYADSVKGRFTISRDNAKNTVYLQMNSLKPEDTAVYYCAARRQGGYGYDYWGQGTQVTVSS,high polyreactivity
22,QVQLVESGGGLVQAGGSLRLSCAASGRIFRRYVMVWSRQAPGKERELVARIRIRDSNTYYADSVKGRFTISRDNAKNTVYLQMNSLKPEDTAVYYCAVVANYVYSKYDYWGQGTLVTVSS,high polyreactivity

row,Sequence,polyreactivity (PSR sort gate)
1,QVQLVESGGGLVQAGGSLRLSCAASGRIFRSNAMGWYRQAPGKERELVAAINYRGDRTYYADSVKGRFTISRDNAKNTVYLQMYSLKPEDTAVYYCNARRYSIPVSAGGYDSWGQGTQVTVSS,high polyreactivity
2,QVQLVESGGGLVQAGGSLRLSCAASGRIFRSNAMGWYRQAPGKERELVATISRRGGSTYYADSVKGRFTISRDNAKNTVYLQMNSLKPEDTAVYFCNTRNSGSLDLYNTMDYWGQGTQVTVSS,high polyreactivity
3,QVQLVESGGGLVQAGGSLRLSCAASGRIFRSYAMGWYRQAPGKERELVAAITKSGGGTYYADTVKGRFTISRDNAKNTVYLQMNSMKPEDTAVYYCGARGHCGYYYWGQGTQVTVSS,high polyreactivity
4,QVQLVESGGGLVQAGGSLRLSCAASGRIFRTNAQGWYRQAPGKERELVAAITRGGTTNYADSVKGRFTISRDNAKNTVYLQMNSLKPEDTAVYYCATRLSGWRYYLARYDYWGQGTQVTVSS,low polyreactivity
5,QVQLVESGGGLVQAGGSLRLSCAASGRIFRTNTMGWYRQAPGKERELVAAITRGGSTYYADSVKGRFTISRDNAKNTVYLQMNSLKPEDTAVYYCAASRYYNSVHNGGDYWGQGTQVTVSS,high polyreactivity
6,QVQLVESGGGLVQAGGSLRLSCAASGRIFRVNAMGWYRQAPGKERELVAAISGRGGSTYYADSVKGRFTISRDNANNTVYLQMNSLKPEDTAVYYCAKKSFSYGYNSYDYWGQGTQVTVSS,high polyreactivity
7,QVQLVESGGGLVQAGGSLRLSCAASGRIFRVYAMGWYRPAPGKERELVAAITSGGTTYADSVKGRFTISRDNAKNTVYLQMYSLKPEDTAVYYCAARHAYPYRRGDFNYWGQGTQVTVSS,high polyreactivity
8,QVQLVESGGGLVQAGGSLRLSCAASGRIFRVYAMGWYRQAPGKERELVAAISSRGGRTYYADSVKGRFTISRDNAKNTVYLQMNSLKPEDTAVYYCAADGRSSSRATSRYDYWGQGTQVTVSS,high polyreactivity
9,QVQLVESGGGLVQAGGSLRLSCAASGRIFRVYAMGWYRQAPGKERELVAAITRGGSTYYADSVKGRFTISRDNAKNTVYLQMNSLKPEDTAVYYCAARTWHRYDYWGQGTQVTVSS,high polyreactivity
10,QVQLVESGGGLVQAGGSLRLSCAASGRIFRVYAMGWYRQAPGKETELVAAISRTGGSTYYADSVKGRFTISRDNAKNTVYLQMNSLKPEDTAVYYCAALVNGNFPTVDYWGQGTQVTVSS,high polyreactivity
11,QVQLVESGGGLVQAGGSLRLSCAASGRIFRVYTMGWYRQAPGKERELVAGITWDGGGTYYADSVKGRFTISRDNAKNTVYLQMNSLKPEDTAVYYCNAVVQGFYLAWLYTLDSWGQGTQVTVSS,low polyreactivity
12,QVQLVESGGGLVQAGGSLRLSCAASGRIFRWNAMGWYRQAPGKEREFVAAISWNGGRTYYADSVMGRFTISRDNAKNTVYLQMNSLKPEDPAVYYCAATHSVPDLLSGDYWGQGTQVTVSS,low polyreactivity
13,QVQLVESGGGLVQAGGSLRLSCAASGRIFRWNAMGWYRQAPGKERELVAAISASGGRTYYADSVKGRFTISRDNAKNTVYLQMISLKPEDTAVYYCAAGPVYYYVPIGYDYWGQGTQVTVSS,high polyreactivity
14,QVQLVESGGGLVQAGGSLRLSCAASGRIFRWSVRGWYRQAPGKERELVAAISYGSGSTYYADSVKGRFTISRDNAKNTVYLQMNSLKPEDTAVYYCAADSQAARYHAYDYWGQGTQVTVSS,high polyreactivity
15,QVQLVESGGGLVQAGGSLRLSCAASGRIFRWYAMGWYRQAPGKERELVASISRGGSTYYADSVKGRFTISRDNAKNTVYLQMNSLKPEDTAVYYCNVKYKYDRAYGEYDYWGQGTQVTVSS,high polyreactivity
16,QVQLVESGGGLVQAGGSLRLSCAASGRIFRWYGMGWYRQAPGKERELVAAITSGGSTHYADSVKGRFTISRDNAKNTVYLQMNSLKPEDTAVYYCAADPYHLQTRFSGLAEFYYWGQGTQVTVSS,low polyreactivity
17,QVQLVESGGGLVQAGGSLRLSCAASGRIFRWYGMGWYRQAPRKERELFAAISGRGGSTYYADSVKGRFTISRDIAKNTVYLQMNSLKPEDSGVYYCKKDPYYIYRPGSGQGYAFNYWGQGTQVTVSS,high polyreactivity
18,QVQLVESGGGLVQAGGSLRLSCAASGRIFRWYTMGWYRQAPGKEREFVAAITWSDTSTSYADSVKGRFTISRDNAKKTVYLQMNSLKPEDTAVYYCNAATRSSVTFGWYIEYDYWGQGTQVTVSS,low polyreactivity
19,QVQLVESGGGLVQAGGSLRLSCAASGRIFRWYTMGWYRQAPGKEREFVDAITWSDTSTSYADSVKGRFTISRDNAKNTVYLQMNSLKPEDTAVYYCNAATRSSVTFGWYIEYDYWGQGTQVTVSS,low polyreactivity
20,QVQLVESGGGLVQAGGSLRLSCAASGRIFRWYVMGWYRQAPGKERELVASISSGGITYYADSVKGRFTISRDNAKNTVYLQMNSLKPEDTAVYYCNARRQPYRTSGSEMGYWGQGTQVTVSS,high polyreactivity
21,QVQLVESGGGLVQAGGSLRLSCAASGRIFRYNAMGWYRQAPGKERELVAAITGCGGSTYYADSVKGRFTISRDNAKNTVYLQMNSLKPEDTAVYYCNTYTYYSRMDYWGQGTQVTVSS,high polyreactivity
